This is an account of results in article PMC3993263.

Data set [1] has as its target T1, RaaS (UniProt O86312).
T1 sequence: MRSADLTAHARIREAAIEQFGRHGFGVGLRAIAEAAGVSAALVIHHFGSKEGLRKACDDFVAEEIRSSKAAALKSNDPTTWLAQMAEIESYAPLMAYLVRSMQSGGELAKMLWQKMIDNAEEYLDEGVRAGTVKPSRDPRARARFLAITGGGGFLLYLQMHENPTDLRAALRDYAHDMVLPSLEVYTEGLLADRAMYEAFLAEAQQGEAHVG
In words: fluorescence anisotropy. The note with it: anisotropy: 50 mM Tris-HCl pH 8.5, 150 mM NaCl, temperature not stated.

Data set [2] addresses T2, RaaS (UniProt O86312 1-212).
T2 sequence: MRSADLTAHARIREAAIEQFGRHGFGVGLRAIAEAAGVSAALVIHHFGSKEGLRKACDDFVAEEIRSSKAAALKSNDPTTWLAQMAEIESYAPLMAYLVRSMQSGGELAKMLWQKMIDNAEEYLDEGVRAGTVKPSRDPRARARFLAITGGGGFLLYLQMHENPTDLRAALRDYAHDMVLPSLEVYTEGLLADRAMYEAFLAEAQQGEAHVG
In words: EMSA; 20 nM DNA, 170 nM RaaS; […]; anisotropy: 50 mM Tris-HCl pH 8.5, 150 mM NaCl; temperature not stated. The conditions noted are these: protein: recombinant; tags: 6xHis (pET15-Tev); chain copies: 2; label: 32P; 5' overhang 3 nt on both strands.

Usually Kd stands for the equilibrium constant for the complex coming apart. Read a high Kd as lower affinity.

The molecule “labeled RaaS-site oligonucleotide (anisotropy)” registered a Kd in the data set with RaaS [1] of 31 nM. That is a double-digit nanomolar value.

B1: M6 (single repeat) (dsDNA)
DNA 1: GGGTGAACATGCGTTCA
DNA 2: GGGTGAACGCATGTTCA
As to B1, the binding result in the data set with RaaS [2] was “no binding”.

B2: M5 (dsDNA)
DNA 1: GGGATGAACGTACGAAAAATATCCTGAACATGCGTTCAG
DNA 2: GGGCTGAACGCATGTTCAGGATATTTTTCGTACGTTCAT
With B2, the binding result with RaaS [2] was “no binding”.
